The numbers were not newly measured in paper PMC7421905, which cites them from elsewhere.

The target in the data set is Laminin 411 (Homo sapiens) (UniProt Q16363).
Chain of UniProt Q16363 (Q16363 25-1823, chain 1 of 3): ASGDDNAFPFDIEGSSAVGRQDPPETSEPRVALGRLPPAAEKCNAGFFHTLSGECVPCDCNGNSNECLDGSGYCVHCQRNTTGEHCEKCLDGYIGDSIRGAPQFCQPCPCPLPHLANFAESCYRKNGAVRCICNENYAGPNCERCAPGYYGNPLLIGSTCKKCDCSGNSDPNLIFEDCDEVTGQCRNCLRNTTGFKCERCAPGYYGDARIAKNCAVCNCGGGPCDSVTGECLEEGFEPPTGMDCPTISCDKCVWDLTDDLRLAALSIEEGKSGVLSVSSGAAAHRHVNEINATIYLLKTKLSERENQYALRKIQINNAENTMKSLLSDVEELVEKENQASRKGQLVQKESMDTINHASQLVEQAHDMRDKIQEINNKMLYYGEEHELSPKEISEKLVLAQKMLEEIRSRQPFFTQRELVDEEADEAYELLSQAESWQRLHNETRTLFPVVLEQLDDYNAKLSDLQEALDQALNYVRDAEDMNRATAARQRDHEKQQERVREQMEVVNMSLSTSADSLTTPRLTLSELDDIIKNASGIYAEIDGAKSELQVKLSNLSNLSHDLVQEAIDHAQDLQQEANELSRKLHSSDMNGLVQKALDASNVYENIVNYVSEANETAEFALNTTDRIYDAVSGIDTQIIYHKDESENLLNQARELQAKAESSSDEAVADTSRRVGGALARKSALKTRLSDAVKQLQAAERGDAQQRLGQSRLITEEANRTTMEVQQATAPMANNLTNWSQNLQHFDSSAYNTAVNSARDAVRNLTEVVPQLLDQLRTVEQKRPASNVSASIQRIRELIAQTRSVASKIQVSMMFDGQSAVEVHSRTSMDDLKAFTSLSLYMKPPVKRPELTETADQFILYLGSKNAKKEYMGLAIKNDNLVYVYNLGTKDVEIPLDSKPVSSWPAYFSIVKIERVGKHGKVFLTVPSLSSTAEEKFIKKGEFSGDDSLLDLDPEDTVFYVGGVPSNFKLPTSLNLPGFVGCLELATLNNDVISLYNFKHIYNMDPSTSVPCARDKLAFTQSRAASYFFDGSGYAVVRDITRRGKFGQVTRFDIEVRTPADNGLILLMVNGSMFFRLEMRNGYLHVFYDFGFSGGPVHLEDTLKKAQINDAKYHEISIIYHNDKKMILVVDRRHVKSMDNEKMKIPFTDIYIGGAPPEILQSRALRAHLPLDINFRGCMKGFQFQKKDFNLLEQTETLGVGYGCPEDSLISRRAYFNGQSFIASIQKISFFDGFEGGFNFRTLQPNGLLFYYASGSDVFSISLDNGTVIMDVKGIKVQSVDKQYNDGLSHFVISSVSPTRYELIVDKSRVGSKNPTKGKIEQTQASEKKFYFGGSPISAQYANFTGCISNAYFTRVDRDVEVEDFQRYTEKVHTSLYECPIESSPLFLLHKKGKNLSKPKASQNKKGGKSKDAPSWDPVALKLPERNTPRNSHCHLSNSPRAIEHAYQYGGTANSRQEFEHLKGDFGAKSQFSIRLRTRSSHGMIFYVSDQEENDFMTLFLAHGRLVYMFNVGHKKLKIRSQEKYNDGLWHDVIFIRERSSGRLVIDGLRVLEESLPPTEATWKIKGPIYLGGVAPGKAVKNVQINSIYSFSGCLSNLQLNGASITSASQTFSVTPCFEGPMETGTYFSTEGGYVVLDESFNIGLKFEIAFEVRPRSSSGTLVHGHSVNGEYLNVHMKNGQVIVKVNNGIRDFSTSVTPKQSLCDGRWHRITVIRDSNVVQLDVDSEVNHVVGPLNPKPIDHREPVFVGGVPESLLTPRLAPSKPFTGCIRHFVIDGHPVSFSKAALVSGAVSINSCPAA
Chain of UniProt Q16363 (P07942 22-1786, chain 2 of 3, further chain): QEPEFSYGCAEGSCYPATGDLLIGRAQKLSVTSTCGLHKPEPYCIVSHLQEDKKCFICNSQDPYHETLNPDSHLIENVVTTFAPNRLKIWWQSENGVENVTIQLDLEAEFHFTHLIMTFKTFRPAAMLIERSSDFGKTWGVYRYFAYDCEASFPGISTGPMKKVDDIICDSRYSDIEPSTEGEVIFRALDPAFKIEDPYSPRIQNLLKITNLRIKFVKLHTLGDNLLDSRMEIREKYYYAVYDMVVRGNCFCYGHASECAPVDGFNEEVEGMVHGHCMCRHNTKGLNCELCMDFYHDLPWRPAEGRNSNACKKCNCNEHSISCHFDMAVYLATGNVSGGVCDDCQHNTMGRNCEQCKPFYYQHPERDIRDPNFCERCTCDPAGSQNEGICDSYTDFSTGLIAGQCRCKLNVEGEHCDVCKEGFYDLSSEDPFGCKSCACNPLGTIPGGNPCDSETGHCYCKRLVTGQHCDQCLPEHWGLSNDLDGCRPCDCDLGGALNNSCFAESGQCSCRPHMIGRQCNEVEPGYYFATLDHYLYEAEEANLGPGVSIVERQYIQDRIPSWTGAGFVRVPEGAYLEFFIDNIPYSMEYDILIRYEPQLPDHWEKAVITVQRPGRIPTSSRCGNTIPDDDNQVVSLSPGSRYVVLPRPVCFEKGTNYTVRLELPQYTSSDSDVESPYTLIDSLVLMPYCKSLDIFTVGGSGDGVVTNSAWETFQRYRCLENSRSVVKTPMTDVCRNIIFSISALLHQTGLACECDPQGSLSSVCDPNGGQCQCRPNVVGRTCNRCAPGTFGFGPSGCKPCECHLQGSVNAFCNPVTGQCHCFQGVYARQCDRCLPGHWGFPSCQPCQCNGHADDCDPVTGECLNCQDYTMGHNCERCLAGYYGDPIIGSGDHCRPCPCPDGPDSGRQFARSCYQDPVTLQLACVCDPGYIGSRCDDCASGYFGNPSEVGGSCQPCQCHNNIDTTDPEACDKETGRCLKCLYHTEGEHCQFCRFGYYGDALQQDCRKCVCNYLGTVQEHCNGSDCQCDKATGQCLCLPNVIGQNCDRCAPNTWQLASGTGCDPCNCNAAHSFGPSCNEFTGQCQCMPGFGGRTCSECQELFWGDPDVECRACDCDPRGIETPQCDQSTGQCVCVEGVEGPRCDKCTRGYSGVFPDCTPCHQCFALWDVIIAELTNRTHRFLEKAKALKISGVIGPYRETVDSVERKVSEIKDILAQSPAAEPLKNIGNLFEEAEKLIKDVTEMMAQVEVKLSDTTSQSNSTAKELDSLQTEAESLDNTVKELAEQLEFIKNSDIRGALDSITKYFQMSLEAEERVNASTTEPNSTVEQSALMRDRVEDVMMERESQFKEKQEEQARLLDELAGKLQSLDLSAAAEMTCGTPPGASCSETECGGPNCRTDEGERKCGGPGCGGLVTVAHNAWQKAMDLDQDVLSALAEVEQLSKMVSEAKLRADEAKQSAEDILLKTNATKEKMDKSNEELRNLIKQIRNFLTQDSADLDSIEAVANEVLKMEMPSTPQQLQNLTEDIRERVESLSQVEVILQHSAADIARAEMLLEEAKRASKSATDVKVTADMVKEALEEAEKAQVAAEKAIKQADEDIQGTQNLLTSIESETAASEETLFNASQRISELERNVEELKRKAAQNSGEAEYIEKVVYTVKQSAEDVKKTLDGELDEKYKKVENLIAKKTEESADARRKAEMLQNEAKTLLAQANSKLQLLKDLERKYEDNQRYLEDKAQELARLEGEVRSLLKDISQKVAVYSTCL
Chain of UniProt Q16363 (P11047 34-1609, chain 3 of 3, further chain): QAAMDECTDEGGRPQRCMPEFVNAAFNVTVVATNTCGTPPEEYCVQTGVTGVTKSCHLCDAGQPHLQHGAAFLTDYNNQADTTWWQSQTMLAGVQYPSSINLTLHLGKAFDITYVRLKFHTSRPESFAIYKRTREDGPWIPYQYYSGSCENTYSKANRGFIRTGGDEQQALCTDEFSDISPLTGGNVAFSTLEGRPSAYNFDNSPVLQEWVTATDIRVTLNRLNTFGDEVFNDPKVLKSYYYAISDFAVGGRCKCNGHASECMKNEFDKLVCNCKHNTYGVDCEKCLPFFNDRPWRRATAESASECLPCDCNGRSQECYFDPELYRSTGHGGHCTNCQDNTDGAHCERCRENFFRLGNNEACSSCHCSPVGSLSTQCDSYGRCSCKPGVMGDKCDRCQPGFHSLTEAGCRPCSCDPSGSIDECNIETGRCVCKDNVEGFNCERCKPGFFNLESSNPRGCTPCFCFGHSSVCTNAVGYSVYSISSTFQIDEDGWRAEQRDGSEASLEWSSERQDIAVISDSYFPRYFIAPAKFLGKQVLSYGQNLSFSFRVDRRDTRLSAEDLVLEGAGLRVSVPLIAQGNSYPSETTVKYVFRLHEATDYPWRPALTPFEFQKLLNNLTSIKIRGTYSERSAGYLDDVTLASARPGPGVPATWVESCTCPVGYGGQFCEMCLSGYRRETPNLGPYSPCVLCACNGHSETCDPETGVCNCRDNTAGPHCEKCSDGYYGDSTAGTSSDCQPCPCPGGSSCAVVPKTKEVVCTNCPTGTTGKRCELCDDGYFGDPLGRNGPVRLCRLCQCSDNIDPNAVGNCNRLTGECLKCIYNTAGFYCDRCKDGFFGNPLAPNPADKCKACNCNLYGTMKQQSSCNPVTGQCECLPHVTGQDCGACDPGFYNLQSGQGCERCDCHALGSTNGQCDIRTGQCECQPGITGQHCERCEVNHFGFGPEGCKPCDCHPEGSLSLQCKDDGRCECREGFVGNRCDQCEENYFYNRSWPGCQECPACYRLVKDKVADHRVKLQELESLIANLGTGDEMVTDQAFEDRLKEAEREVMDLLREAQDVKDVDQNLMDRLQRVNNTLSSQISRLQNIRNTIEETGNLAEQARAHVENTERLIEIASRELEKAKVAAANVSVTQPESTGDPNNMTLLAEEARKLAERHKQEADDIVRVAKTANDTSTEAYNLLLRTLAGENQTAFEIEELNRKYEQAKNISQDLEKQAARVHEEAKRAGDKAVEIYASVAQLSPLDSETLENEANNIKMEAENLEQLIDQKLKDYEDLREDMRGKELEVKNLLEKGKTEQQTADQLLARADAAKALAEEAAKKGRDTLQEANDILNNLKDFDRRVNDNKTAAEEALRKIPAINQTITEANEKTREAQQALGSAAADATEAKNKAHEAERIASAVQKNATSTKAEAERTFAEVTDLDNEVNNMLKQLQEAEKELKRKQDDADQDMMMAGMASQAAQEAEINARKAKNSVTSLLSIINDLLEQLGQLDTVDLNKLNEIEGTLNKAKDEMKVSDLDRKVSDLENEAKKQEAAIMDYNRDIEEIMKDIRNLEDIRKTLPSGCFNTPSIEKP

Take CD146-Fc (from UniProt P43121): the Kd is 27 nM.
